Here are results for three molecules from article doi:10.1101/2024.05.17.594671, “Mechanism of TAX1BP1 recruitment in aggrephagy to switch from cargo collection to sequestration” (bioRxiv, 2024).

Common to all, as to details: both partners purified
The target in assay [1] is T1, 10x-His-mCherry-TAX1BP1 (full length, FL) (UniProt Q86VP1 1-789).
T1 construct: TAX1BP1, full length (FL); also called mCh-TAX1BP1; mCherry-TAX1BP1 FL; source: Sf9 insect cells (pLIB vector, baculovirus), purified as described previously; not shown: mCherry, N-terminal, kept
In words: microscopy-based protein-protein interaction assay (beads); mCherry-TAX1BP1 FL or ΔN on RFP-trap beads; GFP tagged NBR1 fragment CC2-LIR1 as prey.

For assay [2], the target named is T2, GFP-NBR1 (recombinant, purified) (UniProt Q14596 1-966).
T2 construct: NBR1; source: HEK293 (pCAGGSsH-C vector, VBCF ProTech facility), purified as described previously; not shown: GFP, N-terminal, kept
T2 sequence (looked up): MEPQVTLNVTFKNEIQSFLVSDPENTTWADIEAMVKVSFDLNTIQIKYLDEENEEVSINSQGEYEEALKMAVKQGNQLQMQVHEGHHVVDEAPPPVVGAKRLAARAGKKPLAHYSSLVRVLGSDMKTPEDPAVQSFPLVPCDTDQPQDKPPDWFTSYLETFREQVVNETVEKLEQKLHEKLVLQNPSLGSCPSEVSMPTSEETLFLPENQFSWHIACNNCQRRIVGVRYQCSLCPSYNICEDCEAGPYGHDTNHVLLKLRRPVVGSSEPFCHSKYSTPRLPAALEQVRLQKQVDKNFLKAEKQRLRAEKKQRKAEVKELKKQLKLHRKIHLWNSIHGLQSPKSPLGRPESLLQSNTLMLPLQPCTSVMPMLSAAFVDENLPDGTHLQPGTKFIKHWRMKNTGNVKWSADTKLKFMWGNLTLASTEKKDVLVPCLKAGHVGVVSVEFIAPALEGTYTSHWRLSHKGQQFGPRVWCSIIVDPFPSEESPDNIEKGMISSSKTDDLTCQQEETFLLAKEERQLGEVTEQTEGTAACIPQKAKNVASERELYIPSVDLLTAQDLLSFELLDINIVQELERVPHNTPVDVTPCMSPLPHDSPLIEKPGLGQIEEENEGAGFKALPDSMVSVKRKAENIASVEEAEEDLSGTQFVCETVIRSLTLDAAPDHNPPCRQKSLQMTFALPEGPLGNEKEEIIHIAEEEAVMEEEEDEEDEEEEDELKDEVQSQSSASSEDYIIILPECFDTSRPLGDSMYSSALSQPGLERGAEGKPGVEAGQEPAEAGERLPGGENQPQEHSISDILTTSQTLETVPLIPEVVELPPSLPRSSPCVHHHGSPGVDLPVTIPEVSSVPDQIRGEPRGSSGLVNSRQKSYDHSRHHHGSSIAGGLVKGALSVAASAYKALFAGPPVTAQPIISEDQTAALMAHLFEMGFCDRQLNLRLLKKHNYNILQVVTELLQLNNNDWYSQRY
In words: microscopy-based protein-protein interaction assay (beads); 2.5 µM GST-TAX1BP1 (FL, domain, truncations, point mutants) as bait on GST beads; 1 µM GFP-NBR1 as prey; 25 mM HEPES pH 7.5, 150 mM NaCl, 1 mM DTT; 15-30 min at RT; confocal imaging.

For assay [3], the target named is T3, NBR1 (untagged, recombinant) (UniProt Q14596 1-966).
T3 construct: NBR1; source: HEK293 (pCAGGSsH-C vector, VBCF ProTech facility), purified as described previously
T3 sequence (looked up): T2 sequence (looked up)
Kind of assay: in vitro condensation assay (recruitment to p62 condensates, microscopy); 2 µM mCherry-p62 S403E, 1 µM NBR1 (or without NBR1), 2 µM GFP-TAX1BP1 (FL, ΔN or ΔZnF; N domain) in 25 mM HEPES pH 7.5, 150 mM NaCl, 1 mM DTT; condensation triggered with 5 µM GST-4xUB; spinning disk microscopy.

T1 sequence (Q86VP1 whole entry): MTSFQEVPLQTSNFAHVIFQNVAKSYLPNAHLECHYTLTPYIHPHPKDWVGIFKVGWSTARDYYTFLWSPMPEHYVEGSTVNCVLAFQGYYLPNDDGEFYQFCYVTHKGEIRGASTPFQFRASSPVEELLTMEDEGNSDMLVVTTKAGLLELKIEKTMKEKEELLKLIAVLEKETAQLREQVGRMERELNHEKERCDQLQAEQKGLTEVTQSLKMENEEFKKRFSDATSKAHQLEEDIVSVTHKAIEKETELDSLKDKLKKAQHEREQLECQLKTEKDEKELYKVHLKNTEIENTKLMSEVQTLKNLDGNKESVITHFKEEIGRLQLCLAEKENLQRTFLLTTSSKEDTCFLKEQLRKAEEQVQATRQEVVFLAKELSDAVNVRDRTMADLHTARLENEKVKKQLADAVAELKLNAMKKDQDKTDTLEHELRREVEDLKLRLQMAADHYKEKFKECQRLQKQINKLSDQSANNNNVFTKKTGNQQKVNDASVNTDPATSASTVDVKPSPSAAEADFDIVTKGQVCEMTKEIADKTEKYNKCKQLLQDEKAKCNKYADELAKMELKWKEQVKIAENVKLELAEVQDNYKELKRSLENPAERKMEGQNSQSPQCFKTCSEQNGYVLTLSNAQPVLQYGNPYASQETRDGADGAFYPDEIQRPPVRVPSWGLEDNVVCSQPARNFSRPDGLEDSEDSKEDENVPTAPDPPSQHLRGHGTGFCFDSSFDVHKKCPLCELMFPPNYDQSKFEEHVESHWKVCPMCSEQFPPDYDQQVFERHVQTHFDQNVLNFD

B1: GFP-CC2-LIR1 (NBR1 aa685 - aa757) (domain or fragment, UniProt Q14596 685-757, looked up)
chain: LGNEKEEIIHIAEEEAVMEEEEDEEDEEEEDELKDEVQSQSSASSEDYIIILPECFDTSRPLGDSMYSSALSQ
notes: NBR1 fragment CC2-LIR1, aa685-757; The methods name the purified protein GST-GFP-CC2-LIR1 and give elution either by TEV cleavage or by glutathione; also called GST-GFP-CC2-LIR1; GFP tagged NBR1 fragment (CC2-LIR2); source: E. coli Rosetta (pGEX-4T1), purified (GST beads, SEC); not shown: GFP, N-terminal, kept
As for B1, the binding result in assay [1] is “binds”.

B2: GST-N domain (aa420-506 of TAX1BP1) (domain or fragment, UniProt Q86VP1 420-506, looked up)
chain: DQDKTDTLEHELRREVEDLKLRLQMAADHYKEKFKECQRLQKQINKLSDQSANNNNVFTKKTGNQQKVNDASVNTDPATSASTVDVK
With B2, the binding result in assay [2] is listed as “binds”.

B3: GFP-N-domain (aa420-506 of TAX1BP1) (domain or fragment, UniProt Q86VP1 420-506, looked up)
chain: B2 chain
notes: TAX1BP1 N-domain, aa420-506; Cloned into pGEX-4T1; the methods name the purified protein GFP-N domain and give elution either by TEV cleavage or by glutathione; also called N-domain alone; isolated N-domain; source: E. coli Rosetta (pGEX-4T1), purified (GST beads, SEC); not shown: GFP, N-terminal, kept
Regarding B3, the binding result in assay [3] is given as “binds”.
